Data on two substances can be found in patent US20220090138A1.

The target in test [1] is … (EBV LMP2A) presented by HLA-A*0201 (human). In words: cell-based or functional assay.
Test [2] addresses … (HCMV pp65) presented by HLA-A*0201 (human). In words: cell-based or functional assay.

Regarding “TCR recognizing … presented by A*0201 (PDB #3REV)”, in test [1], the in vitro T cell activation assay (luciferase); targeting cassette design A is 6.1, the in vitro T cell activation assay (luciferase); targeting cassette design B came to 6.3, the in vitro T cell activation assay (luciferase); targeting cassette design C turned out to be 7.6 and the in vitro T cell activation assay (luciferase); targeting cassette design D came to 7. Moreover, in test [1], the in vitro T cell activation assay (luciferase); targeting cassette design E was 5.9, the in vitro T cell activation assay (luciferase); targeting cassette design F was 3.7, the in vitro T cell activation assay (luciferase); targeting cassette design G is 7.6 and the in vitro T cell activation assay (luciferase); targeting cassette design H stood at 5.4. In test [1], the in vitro T cell activation assay (luciferase); targeting cassette design I is 6.2; the in vitro T cell activation assay (luciferase); targeting cassette design J worked out at 6.4; the induction of luciferase, in vitro T cell activation assay; short cassette AAY was found to be 11.3; the luciferase induction, in vitro T cell activation assay; short cassette 9AA (relative to uninfected controls) turned out to be 12. Moreover, in test [1], the luciferase induction, in vitro T cell activation assay; short cassette 17AA (relative to uninfected controls) is 10.3; the luciferase induction, in vitro T cell activation assay; short cassette 25AA (relative to uninfected controls) was 14.6; the luciferase induction, in vitro T cell activation assay; short cassette AAY (relative to uninfected controls) is 11.3; the luciferase induction, in vitro T cell activation assay; short cassette RR (relative to uninfected controls) turned out to be 8.5.

For “TCR recognizing … presented by A*0201 (PDB #5D2N)”, in test [2], the in vitro T cell activation assay (luciferase); targeting cassette design A stood at 32.5, the in vitro T cell activation assay (luciferase); targeting cassette design B worked out at 31.8, the in vitro T cell activation assay (luciferase); targeting cassette design C is 29.1 and the in vitro T cell activation assay (luciferase); targeting cassette design D is 29.1. Further, in test [2], the in vitro T cell activation assay (luciferase); targeting cassette design E was 28.4, the in vitro T cell activation assay (luciferase); targeting cassette design F turned out to be 20.4, the in vitro T cell activation assay (luciferase); targeting cassette design G was found to be 35 and the in vitro T cell activation assay (luciferase); targeting cassette design H was 30.3. Further, in test [2], the in vitro T cell activation assay (luciferase); targeting cassette design I came out at 22.5; the in vitro T cell activation assay (luciferase); targeting cassette design J was 38.1; the induction of luciferase, in vitro T cell activation assay; short cassette AAY is 24.5; the luciferase induction, in vitro T cell activation assay; short cassette 9AA (relative to uninfected controls) was 33.6. For the same substance, in test [2], the luciferase induction, in vitro T cell activation assay; short cassette 17AA (relative to uninfected controls) was 42.8; the luciferase induction, in vitro T cell activation assay; short cassette 25AA (relative to uninfected controls) is 42.3; the luciferase induction, in vitro T cell activation assay; short cassette AAY (relative to uninfected controls) was 24.5; the luciferase induction, in vitro T cell activation assay; short cassette DPP (linker designed to disrupt antigen processing) (relative to uninfected controls) amounted to 0.9. Also, the luciferase induction, in vitro T cell activation assay; short cassette RR (relative to uninfected controls) in test [2] worked out at 21.7.
